Reference: patent US20160136234A1

Assays:
Experiment in all cases: cell-based or functional assay
CaMKIδ (h) (human) = CaMKIδ (h) (human) (UniProt Q8IU85)
MELK (h) (human) = MELK (h) (human) (UniProt Q14680)
Itk (h) (human) = target: T1, Itk (h) (human) (UniProt Q08881)
T1 sequence (looked up): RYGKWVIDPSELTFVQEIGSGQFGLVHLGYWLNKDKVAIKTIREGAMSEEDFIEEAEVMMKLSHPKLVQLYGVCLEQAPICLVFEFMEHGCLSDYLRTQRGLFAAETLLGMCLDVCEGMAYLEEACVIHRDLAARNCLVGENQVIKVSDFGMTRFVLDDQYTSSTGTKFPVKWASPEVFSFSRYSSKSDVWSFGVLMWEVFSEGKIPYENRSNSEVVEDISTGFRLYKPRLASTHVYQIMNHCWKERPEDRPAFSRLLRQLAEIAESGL

GRK6 (h) (human) = GRK6 (h) (human) (UniProt P43250)
Met (h) (human) = Met (h) (human) (UniProt P08581)
BTK(R28H) (h) (human) = BTK(R28H) (h) (human) (UniProt Q06187)
SIK (h) (human) = SIK (h) (human) (UniProt P57059)
Met(M1268T) (h) (human) = Met(M1268T) (h) (human) (UniProt P08581)
Abl (Q252H) (h) (human) = Abl (Q252H) (h) (human) (UniProt P00519)
Abl (Q252H) (h) (human), sequence (P00519 27-1130 Q252H limits assumed): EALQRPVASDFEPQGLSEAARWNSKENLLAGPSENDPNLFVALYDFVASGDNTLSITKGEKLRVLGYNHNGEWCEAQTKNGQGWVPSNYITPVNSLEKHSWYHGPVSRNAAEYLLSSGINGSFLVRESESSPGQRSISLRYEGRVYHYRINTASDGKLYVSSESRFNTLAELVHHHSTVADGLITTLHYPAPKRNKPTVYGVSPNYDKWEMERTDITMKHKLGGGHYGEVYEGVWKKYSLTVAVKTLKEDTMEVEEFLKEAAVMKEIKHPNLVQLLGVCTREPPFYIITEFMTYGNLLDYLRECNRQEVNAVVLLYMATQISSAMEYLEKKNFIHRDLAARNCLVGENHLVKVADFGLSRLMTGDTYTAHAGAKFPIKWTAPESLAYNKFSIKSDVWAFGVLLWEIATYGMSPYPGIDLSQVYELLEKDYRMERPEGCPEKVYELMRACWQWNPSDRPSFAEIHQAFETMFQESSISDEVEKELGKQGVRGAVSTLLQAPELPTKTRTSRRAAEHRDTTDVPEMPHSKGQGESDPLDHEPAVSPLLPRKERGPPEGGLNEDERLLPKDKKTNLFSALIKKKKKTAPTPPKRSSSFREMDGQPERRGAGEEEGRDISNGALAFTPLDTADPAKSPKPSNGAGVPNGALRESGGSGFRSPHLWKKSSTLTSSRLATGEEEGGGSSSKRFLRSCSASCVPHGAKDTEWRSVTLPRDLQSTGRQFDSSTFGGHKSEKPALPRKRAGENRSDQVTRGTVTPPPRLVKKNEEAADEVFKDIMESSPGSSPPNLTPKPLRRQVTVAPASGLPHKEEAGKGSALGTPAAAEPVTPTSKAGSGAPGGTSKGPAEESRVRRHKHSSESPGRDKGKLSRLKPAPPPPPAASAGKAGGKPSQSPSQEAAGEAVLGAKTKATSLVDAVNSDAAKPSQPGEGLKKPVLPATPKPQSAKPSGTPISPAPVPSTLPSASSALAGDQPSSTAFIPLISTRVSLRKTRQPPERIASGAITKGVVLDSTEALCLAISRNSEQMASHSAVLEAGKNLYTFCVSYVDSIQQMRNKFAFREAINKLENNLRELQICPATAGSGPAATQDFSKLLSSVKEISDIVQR

MSSK1 (h) (human) = MSSK1 (h) (human) (UniProt Q9UPE1)
[1] = target: CDK6/cyclinD3 (h) (human) (UniProt Q00534)
CDK6/cyclinD3 (h) (human), sequence (Q00534 whole entry, chain 1 of 2): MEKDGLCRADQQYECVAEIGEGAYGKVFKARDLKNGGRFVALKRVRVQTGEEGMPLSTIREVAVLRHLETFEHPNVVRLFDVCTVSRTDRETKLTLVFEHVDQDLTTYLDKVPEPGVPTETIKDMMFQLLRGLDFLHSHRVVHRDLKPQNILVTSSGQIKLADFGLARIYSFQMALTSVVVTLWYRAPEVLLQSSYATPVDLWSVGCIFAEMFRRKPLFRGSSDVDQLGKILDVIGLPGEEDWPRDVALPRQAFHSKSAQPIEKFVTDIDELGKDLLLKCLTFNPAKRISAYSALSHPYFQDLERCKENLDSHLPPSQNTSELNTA
CDK6/cyclinD3 (h) (human), sequence (P30281 whole entry, chain 2 of 2, further chain): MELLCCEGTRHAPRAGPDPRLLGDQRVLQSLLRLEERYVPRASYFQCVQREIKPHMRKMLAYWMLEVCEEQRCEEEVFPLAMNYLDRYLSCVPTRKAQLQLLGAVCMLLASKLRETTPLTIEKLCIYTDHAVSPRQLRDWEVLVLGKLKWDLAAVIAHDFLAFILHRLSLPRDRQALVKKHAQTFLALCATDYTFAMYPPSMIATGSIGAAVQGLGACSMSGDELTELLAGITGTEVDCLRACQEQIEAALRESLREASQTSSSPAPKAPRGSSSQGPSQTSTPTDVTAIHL

Pyk2 (h) (human) = Pyk2 (h) (human) (UniProt Q14289)
PKD2 (h) (human) = target: T2, PKD2 (h) (human) (UniProt Q9BZL6)
T2 sequence (looked up): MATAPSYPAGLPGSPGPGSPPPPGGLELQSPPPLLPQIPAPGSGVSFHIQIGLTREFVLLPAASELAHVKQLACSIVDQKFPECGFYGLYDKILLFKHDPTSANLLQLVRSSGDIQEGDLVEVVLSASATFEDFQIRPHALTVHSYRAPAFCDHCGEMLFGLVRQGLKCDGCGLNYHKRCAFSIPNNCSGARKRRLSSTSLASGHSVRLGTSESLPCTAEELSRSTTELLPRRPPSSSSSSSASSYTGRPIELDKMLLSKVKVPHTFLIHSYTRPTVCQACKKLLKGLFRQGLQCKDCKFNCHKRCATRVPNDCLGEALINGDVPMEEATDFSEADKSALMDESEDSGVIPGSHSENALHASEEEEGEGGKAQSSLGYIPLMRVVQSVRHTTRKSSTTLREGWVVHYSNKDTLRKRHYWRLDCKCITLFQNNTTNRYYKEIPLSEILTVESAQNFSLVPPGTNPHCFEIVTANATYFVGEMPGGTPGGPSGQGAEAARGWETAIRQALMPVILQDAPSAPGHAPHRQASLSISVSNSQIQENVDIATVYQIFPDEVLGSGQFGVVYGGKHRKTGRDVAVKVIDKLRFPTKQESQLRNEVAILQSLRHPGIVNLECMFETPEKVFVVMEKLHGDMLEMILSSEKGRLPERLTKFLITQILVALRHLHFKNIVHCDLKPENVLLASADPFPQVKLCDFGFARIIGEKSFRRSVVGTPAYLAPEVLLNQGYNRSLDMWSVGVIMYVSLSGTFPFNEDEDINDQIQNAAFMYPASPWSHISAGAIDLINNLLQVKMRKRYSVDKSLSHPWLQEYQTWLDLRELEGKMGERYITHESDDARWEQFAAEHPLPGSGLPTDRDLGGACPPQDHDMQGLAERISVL

eEF-2K (h) (human) = target: T3, eEF-2K (h) (human) (UniProt O00418)
T3 sequence (looked up): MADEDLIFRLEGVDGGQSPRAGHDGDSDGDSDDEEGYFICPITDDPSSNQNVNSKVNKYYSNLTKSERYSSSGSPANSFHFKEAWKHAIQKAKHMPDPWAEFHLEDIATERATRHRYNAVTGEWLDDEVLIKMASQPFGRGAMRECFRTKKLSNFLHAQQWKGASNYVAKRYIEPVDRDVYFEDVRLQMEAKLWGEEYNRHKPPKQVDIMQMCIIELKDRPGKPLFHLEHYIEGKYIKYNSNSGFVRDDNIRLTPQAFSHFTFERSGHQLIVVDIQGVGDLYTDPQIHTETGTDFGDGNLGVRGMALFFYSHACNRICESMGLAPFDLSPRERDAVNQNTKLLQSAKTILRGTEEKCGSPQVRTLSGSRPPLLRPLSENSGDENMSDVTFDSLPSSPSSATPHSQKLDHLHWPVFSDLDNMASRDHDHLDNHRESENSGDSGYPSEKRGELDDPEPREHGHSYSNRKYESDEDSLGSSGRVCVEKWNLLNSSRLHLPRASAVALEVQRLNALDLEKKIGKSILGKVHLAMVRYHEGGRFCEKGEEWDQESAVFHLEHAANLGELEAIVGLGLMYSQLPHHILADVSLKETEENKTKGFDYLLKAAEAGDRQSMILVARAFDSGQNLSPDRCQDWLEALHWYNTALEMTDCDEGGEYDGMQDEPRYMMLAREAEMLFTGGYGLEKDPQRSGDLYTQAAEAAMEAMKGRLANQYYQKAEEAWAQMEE

SAPK2a (h) (human) = SAPK2a (h) (human) (UniProt Q16539)
SAPK2a (h) (human), sequence (Q16539 whole entry): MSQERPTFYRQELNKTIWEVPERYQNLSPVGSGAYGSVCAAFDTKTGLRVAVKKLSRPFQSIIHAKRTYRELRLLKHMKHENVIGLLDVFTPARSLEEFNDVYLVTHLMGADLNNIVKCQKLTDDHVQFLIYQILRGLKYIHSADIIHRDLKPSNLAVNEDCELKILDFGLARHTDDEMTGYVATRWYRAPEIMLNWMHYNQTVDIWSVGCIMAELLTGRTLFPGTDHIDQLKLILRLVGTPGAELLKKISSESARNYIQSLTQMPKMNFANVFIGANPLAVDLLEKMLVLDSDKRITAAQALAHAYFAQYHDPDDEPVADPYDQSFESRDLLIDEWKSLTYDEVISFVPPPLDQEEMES

LKB1 (h) (human) = target: T4, LKB1 (h) (human) (UniProt Q15831)
T4 sequence (looked up): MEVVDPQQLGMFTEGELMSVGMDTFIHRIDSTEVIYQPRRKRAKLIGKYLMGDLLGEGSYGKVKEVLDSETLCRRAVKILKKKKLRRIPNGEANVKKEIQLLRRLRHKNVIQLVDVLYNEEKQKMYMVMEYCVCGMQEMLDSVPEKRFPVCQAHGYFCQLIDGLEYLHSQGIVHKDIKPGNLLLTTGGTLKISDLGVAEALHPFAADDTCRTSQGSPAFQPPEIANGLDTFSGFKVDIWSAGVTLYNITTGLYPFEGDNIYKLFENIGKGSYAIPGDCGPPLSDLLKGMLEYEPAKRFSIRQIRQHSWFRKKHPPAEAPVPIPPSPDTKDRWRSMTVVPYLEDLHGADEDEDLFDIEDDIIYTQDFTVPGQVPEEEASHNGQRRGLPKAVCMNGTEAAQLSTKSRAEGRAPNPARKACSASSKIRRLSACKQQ

MRCKβ (h) (human) = MRCKβ (h) (human) (UniProt Q9Y5S2)
MRCKβ (h) (human), sequence (Q9Y5S2 1-473 limits assumed): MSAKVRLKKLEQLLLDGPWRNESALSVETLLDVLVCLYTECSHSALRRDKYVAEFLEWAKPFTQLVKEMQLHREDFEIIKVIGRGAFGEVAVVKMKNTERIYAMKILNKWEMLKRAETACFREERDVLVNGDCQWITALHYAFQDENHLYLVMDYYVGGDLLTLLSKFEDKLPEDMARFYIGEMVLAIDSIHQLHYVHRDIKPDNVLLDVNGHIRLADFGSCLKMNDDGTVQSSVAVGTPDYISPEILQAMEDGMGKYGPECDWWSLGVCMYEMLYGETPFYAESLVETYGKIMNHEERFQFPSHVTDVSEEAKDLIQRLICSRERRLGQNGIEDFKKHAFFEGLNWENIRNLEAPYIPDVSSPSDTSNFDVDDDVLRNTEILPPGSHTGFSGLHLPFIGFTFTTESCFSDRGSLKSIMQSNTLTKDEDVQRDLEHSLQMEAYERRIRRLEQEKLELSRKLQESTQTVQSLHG

% activity at 100 µM (CaMKIδ (h) (human)): 10%
% activity at 100 µM (MELK (h) (human)): 16%
% activity at 100 µM (Itk (h) (human)): 77%
% activity at 100 µM (GRK6 (h) (human)): 147%
% activity at 100 µM (Met (h) (human)): 65%
% activity at 100 µM (BTK(R28H) (h) (human)): 74%
% activity at 100 µM (SIK (h) (human)): 66%
% activity at 100 µM (Met(M1268T) (h) (human)): 255%
% activity at 100 µM (Abl (Q252H) (h) (human)): 82%
% activity at 100 µM (MSSK1 (h) (human)): 77%
% activity at 100 µM [1]: 86%
% activity at 100 µM (Pyk2 (h) (human)): 47%
% activity at 100 µM (PKD2 (h) (human)): 33%
% activity at 100 µM (eEF-2K (h) (human)): 91%
% activity at 100 µM (SAPK2a (h) (human)): 90%
% activity at 100 µM (LKB1 (h) (human)): 101%
% activity at 100 µM (MRCKβ (h) (human)): 83%
Substance: MMI-0300 (peptide)
